Data as given in the supplement of paper PMC12338614.
± gives the uncertainty stated by the source.

B1: library; numbered along this chain (parent)
chain: MEVVDPQQLGMFTEGELMSVGMDTFIHRIDSTEVIYQPRRKRAKLIGKYLMGDLLGEGSYGKVKEVLDSETLCRRAVKILKKKKLRRIPNGEANVKKEIQLLRRLRHKNVIQLVDVLYNEEKQKMYMVMEYCVCGMQEMLDSVPEKRFPVCQAHGYFCQLIDGLEYLHSQGIVHKDIKPGNLLLTTGGTLKISDLGVAEALHPFAADDTCRTSQGSPAFQPPEIANGLDTFSGFKVDIWSAGVTLYNITTGLYPFEGDNIYKLFENIGKGSYAIPGDCGPPLSDLLKGMLEYEPAKRFSIRQIRQHSWFRKKHPPAEAPVPIPPSPDTKDRWRSMTVVPYLEDLHGADEDEDLFDIEDDIIYTQDFTVPGQVPEEEASHNGQRRGLPKAVCMNGTEAAQLSTKSRAEGRAPNPARKACSASSKIRRLSACKQQ

Variants of: B1
Assay: STK11 functional score (HeLa growth suppression), rescaled enrichment; synonymous median = 1, nonsense median = 0 (normalised score)
Conditions: with HeLa; variant type: missense
Method in brief: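 Functional scores are post/pre-selection log ratios corrected to wild type, rescaled to synonymous and nonsense medians, merged over codons and replicate transfections, and given bootstrapped error. They come from POPCode libraries of codon-optimised STK11 integrated by Bxb1 at an AAVS1 landing pad in HeLa, three regions each transfected three times, with BFP-negative, mCherry-positive integrants sorted by FACS and tiled gDNA amplicons sequenced on NextSeq.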

| Variant | STK11 functional score |
| --- | --- |
| M127Y | 1.24 ± 0.2 |
| P413M | 1.53 ± 0.17 |
| G10V | 0.971 ± 0.18 |
| N247W | 0.698 ± 0.082 |
| P323H | 1.42 ± 0.2 |
| R409P | 1.57 ± 0.35 |
| Y253F | 0.587 ± 0.17 |
| D348R | 1.2 ± 0.26 |
| L228A | 1.66 ± 0.14 |
| L386I | 1.14 ± 0.22 |
| I360M | 0.866 ± 0.14 |
| A377G | 1.01 ± 0.21 |
| M136Q | 0.0397 ± 0.082 |
| D115S | 1.6 ± 0.15 |
| R39C | 0.223 ± 0.2 |
| K269C | 1.09 ± 0.35 |
| T395N | 1.4 ± 0.21 |
| G408A | 1.61 ± 0.34 |
| S378V | 1.04 ± 0.17 |
| K41V | 1.36 ± 0.19 |
| E130T | 1.33 ± 0.34 |
| R40A | 1.6 ± 0.36 |
| N226P | 0.609 ± 0.13 |
| I46Y | 1.29 ± 0.28 |

| Variant | STK11 functional score |
| --- | --- |
| L117T | 0.762 ± 0.38 |
| A206D | 1.07 ± 0.12 |
| L252I | 1.54 ± 0.12 |
| K388N | 1.53 ± 0.49 |
| A295L | 0.756 ± 0.55 |
| F219Q | 1.57 ± 0.25 |
| A410M | 0.531 ± 0.42 |
| E351D | 0.951 ± 0.63 |
| D141T | 0.00893 ± 0.31 |
| K108P | 1.35 ± 0.26 |
| L245G | -0.177 ± 0.094 |
| Y362E | 0.99 ± 0.45 |
| H174C | 0.891 ± 0.41 |
| K83Y | 1.15 ± 0.15 |
| F264T | 0.96 ± 0.56 |
| M11G | 1.4 ± 0.54 |
| P314W | 1.6 ± 0.17 |
| V320R | 1.49 ± 0.17 |
| G215A | 1.15 ± 0.2 |
| V34Y | 1.05 ± 0.13 |
| S404G | 1.57 ± 0.28 |
| N266W | 0.574 ± 0.1 |
| L17A | 1.68 ± 0.37 |
| Q364A | 1.53 ± 0.15 |

| Variant | STK11 functional score |
| --- | --- |
| N226A | 1.61 ± 0.19 |
| S59Q | 1.63 ± 0.19 |
| S378P | 1.38 ± 0.24 |
| E121F | 0.824 ± 0.14 |
| H107F | 0.159 ± 0.075 |
| Q112P | 1.24 ± 0.27 |
| P6M | 0.679 ± 0.19 |
| Q371D | 1.43 ± 0.11 |
| D208C | 1.26 ± 0.38 |
| V116S | 0.887 ± 0.14 |
| K81R | 1.21 ± 0.16 |
| M392P | 1.63 ± 0.27 |
| V34S | 1.29 ± 0.16 |
| S216M | 0.227 ± 0.12 |
| R383H | 1.57 ± 0.31 |
| L55V | 0.737 ± 0.11 |
| H202F | 0.754 ± 0.15 |
| P413D | 1.6 ± 0.33 |
| F231M | -0.0118 ± 0.18 |
| A205P | 0.302 ± 0.19 |
| A273F | 0.993 ± 0.43 |
| N90G | 1.63 ± 0.19 |
| G394N | 0.969 ± 0.76 |
| L80M | 0.45 ± 0.67 |

| Variant | STK11 functional score |
| --- | --- |
| E65L | 0.5 ± 0.28 |
| D359R | 1.52 ± 0.19 |
| E138Y | 1.08 ± 0.077 |
| P339S | 1.42 ± 0.2 |
| Q7D | 1.33 ± 0.08 |
| D365A | 0.704 ± 0.15 |
| V95T | 1.62 ± 0.22 |
| L290N | -0.076 ± 0.064 |
| E342S | 1.39 ± 0.25 |
| S325P | 1.51 ± 0.16 |
| E92W | 1.03 ± 0.61 |
| D358Q | 1.49 ± 0.3 |
| T250V | 1.24 ± 0.14 |
| L113G | 0.252 ± 0.13 |
| I248M | 1.24 ± 0.3 |
| A273G | 0.649 ± 0.24 |
| T32G | 1.45 ± 0.23 |
| M18P | 1.69 ± 0.13 |
| T24F | 1.37 ± 0.11 |
| Y166S | 0.964 ± 0.3 |
| D194Y | -0.089 ± 0.093 |
| L102R | 0.466 ± 0.086 |
| K108H | 1.26 ± 0.3 |
| R42W | 1.68 ± 0.52 |

| Variant | STK11 functional score |
| --- | --- |
| A316P | 0.694 ± 0.36 |
| I99W | 0.631 ± 0.11 |
| A347R | 1.54 ± 0.18 |
| T249D | -0.107 ± 0.097 |
| H379T | 1.31 ± 0.18 |
| F264W | 0.216 ± 0.074 |
| E265W | 1.57 ± 0.21 |
| T244H | 0.0105 ± 0.12 |
| P281Q | 1.51 ± 0.31 |
| F354L | 1.12 ± 0.22 |
| G346I | 1.18 ± 0.33 |
| R384Q | 1.62 ± 0.32 |
| T336P | 1.18 ± 0.18 |
| D258A | 1.33 ± 0.76 |
| F148V | 0.674 ± 0.14 |
| L160I | 1.17 ± 0.12 |
| S283M | 1.28 ± 0.22 |
| G381T | 1.6 ± 0.27 |
| A377E | -0.00596 ± 0.15 |
| Q137L | 1.27 ± 0.084 |
| R310F | 1.35 ± 0.15 |
| D68N | 1.31 ± 0.8 |
| Y131L | 1.36 ± 0.18 |
| E16L | 1.15 ± 0.29 |

| Variant | STK11 functional score |
| --- | --- |
| H174F | 0.138 ± 0.044 |
| E121S | 1.17 ± 0.1 |
| G52M | -0.407 ± 0.21 |
| K403R | 1.03 ± 0.69 |
| K388P | 0.884 ± 0.37 |
| T402C | 1.33 ± 0.4 |
| I248G | 0.0645 ± 0.096 |
| S216E | -0.148 ± 0.092 |
| T328E | 1.5 ± 0.17 |
| T32I | 0.842 ± 0.13 |
| M51P | 1.66 ± 0.35 |
| K287N | 1.49 ± 0.57 |
| V114T | 1.43 ± 0.086 |
| K146S | 1.33 ± 0.12 |
| L341G | 1.46 ± 0.18 |
| Q137R | 0.73 ± 0.12 |
| G279W | 1.06 ± 0.077 |
| G52V | 1.1 ± 0.19 |
| N109A | 0.625 ± 0.74 |
| R331C | 1.38 ± 0.24 |
| E130Q | 0.94 ± 0.3 |
| I424L | 1.34 ± 0.18 |
| A206Q | 1.07 ± 0.092 |
| L182P | -0.0858 ± 0.071 |

| Variant | STK11 functional score |
| --- | --- |
| L353I | 1.19 ± 0.15 |
| A377V | 1.31 ± 0.34 |
| P326G | 1.52 ± 0.15 |
| N393G | 1.36 ± 0.31 |
| A295S | 1.44 ± 0.16 |
| M127N | 1.63 ± 0.19 |
| W332S | 1.21 ± 0.33 |
| Q100I | 1.64 ± 0.19 |
| I356V | 1.46 ± 0.28 |
| S283W | 0.819 ± 0.087 |
| V390H | 0.912 ± 0.65 |
| V390L | 1.22 ± 0.21 |
| D330M | 1.58 ± 0.17 |
| S307L | 1.47 ± 0.1 |
| A93W | 1.63 ± 0.1 |
| F148S | -0.139 ± 0.082 |
| N380T | 1.31 ± 0.45 |
| N259V | 0.437 ± 0.1 |
| A389V | 0.744 ± 0.54 |
| I35C | 1.39 ± 0.25 |
| P281I | 1.46 ± 0.18 |
| N393M | 1.48 ± 0.24 |
| E349V | 1.16 ± 0.37 |
